Source: patent US20260317429 (published 2026)
Like-named read-outs stand apart in the source and are kept apart here.

Columns and labels:
FGFR2IIIb-Fc [1] = target: T1, FGFR2IIIb-Fc (human, UniProt P21802); assay: competition ELISA, FGF10
Target sequence in this assay (P21802 22-377): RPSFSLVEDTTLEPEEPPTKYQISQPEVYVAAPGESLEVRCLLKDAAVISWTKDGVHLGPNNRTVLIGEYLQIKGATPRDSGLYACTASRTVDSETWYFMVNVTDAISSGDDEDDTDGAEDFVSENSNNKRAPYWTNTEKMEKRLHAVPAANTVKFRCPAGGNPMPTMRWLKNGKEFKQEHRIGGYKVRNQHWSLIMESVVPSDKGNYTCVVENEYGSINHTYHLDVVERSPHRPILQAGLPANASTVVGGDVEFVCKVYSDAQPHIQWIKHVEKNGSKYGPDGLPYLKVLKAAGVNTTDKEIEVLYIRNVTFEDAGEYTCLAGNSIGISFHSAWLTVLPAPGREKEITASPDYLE

FGFR2IIIb on cells [2] = target: T2, FGFR2IIIb on cells (human, UniProt P21802); assay: FACS, CHO-FGFR2IIIb
Target sequence in this assay (P21802 22-377): as above

FGFR2IIIb-his (ECD) [3] = target: T3, FGFR2IIIb-his (ECD) (human); assay: SPR
T3 chain: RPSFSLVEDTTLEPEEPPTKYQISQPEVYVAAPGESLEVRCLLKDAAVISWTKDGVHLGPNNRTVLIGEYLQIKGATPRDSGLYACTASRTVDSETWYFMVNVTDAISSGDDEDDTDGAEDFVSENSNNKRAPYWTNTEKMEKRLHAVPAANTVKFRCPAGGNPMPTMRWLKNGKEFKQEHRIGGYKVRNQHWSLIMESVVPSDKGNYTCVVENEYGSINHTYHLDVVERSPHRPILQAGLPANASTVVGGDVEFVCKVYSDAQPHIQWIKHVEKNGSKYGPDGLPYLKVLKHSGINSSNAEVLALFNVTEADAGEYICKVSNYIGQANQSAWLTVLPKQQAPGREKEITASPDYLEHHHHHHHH

FGFR2IIIb on cells [4] = target: T2, FGFR2IIIb on cells; assay: FACS, SNU-16
Target sequence in this assay (P21802 22-377): as the sequence (P21802 22-377) above

FGFR2IIIb-Fc [5] = target: T1, FGFR2IIIb-Fc; assay: competition ELISA, FGF1
Target sequence in this assay (P21802 22-377): as the sequence (P21802 22-377) above

FGFR2IIIb-his (ECD) [6] = target: T3, FGFR2IIIb-his (ECD); assay: ELISA
FGFR2IIIb-Fc [7] = target: T1, FGFR2IIIb-Fc; assay: competition ELISA, FGF1; remark: listed apart in the source
FGFR2IIIb-Fc [8] = target: T1, FGFR2IIIb-Fc; assay: competition ELISA, FGF7
FGFR2IIIb-Fc [9] = target: T1, FGFR2IIIb-Fc; assay: competition ELISA, FGF1; remark: listed apart in the source
FGFR2IIIb-Fc [10] = target: T1, FGFR2IIIb-Fc; assay: competition ELISA, FGF10; remark: listed apart in the source
FGFR2IIIb on cells [11] = target: T2, FGFR2IIIb on cells; assay: FACS, CHO-FGFR2IIIb; remark: listed apart in the source
FGFR2IIIb-Fc [12] = target: T1, FGFR2IIIb-Fc; assay: competition ELISA, FGF7; remark: listed apart in the source
FGFR2IIIb-Fc [13] = target: T1, FGFR2IIIb-Fc; assay: competition ELISA, FGF10; remark: listed apart in the source
FGFR2IIIb on cells [14] = target: T2, FGFR2IIIb on cells; assay: FACS, SNU-16; remark: listed apart in the source
FGFR2IIIb-his (ECD) [15] = target: T3, FGFR2IIIb-his (ECD); assay: ELISA
mouse FGFR2IIIb = target: T4, mouse FGFR2IIIb (mouse, UniProt P21803); assay: ELISA
T4 chain: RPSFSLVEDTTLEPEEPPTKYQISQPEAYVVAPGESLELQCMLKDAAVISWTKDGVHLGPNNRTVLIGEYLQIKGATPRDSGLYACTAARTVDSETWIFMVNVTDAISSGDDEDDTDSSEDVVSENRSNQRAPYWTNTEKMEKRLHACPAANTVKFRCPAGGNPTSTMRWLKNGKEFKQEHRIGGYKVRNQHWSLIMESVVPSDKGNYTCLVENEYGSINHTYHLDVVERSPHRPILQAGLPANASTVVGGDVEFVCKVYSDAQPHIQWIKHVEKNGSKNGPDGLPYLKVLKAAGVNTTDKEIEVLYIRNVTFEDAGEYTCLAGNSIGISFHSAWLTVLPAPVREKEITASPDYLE

FGFR2IIIc-his (ECD) = FGFR2IIIc-his (ECD) (human); assay: ELISA
FGFR2IIIb-his (ECD) [16] = target: T3, FGFR2IIIb-his (ECD); assay: ELISA
FGFR2IIIb-Fc [17] = target: T1, FGFR2IIIb-Fc; assay: competition ELISA, FGF7; remark: listed apart in the source
FGFR2IIIb-Fc [18] = target: T1, FGFR2IIIb-Fc; assay: competition ELISA, FGF10; remark: listed apart in the source

B1: III-11 (antibody, V domains shown)
VH: QVQLVQSGAEVKKPGSSVKVSCKASGYTFAIYNMHWVRQAPGQGLEWIGAIYPDNGDTFYNQKFKGKATLTADKSTSTAYMELSSLRSEDTAVYYCARGDFGYWGQGTLVTVSS
VL: DIVMTQSPSSLSASVGDRVTITCKASQDVNIDPAWYQQKPGKAPKLLIYLASYRYTGVPSRFSGSGSGTDFTFTISSLQPEDFATYYCQQHYSTPYTFGQGTKLEIK
IC50 (FGFR2IIIb-Fc [1]): 0.976 µg/mL
EC50 (FGFR2IIIb on cells [2]): 0.19 µg/mL
Kd (FGFR2IIIb-his (ECD) [3]): 1.24 nM
EC50 (FGFR2IIIb on cells [4]): 0.319 µg/mL
IC50 (FGFR2IIIb-Fc [5]): 1.18 µg/mL
EC50 (FGFR2IIIb-his (ECD) [6]): 0.051 µg/mL

B2: III-13 (antibody, V domains shown)
VH: QVQLVQSGAEVKKPGSSVKVSCKASGYTFAIYNMHWVRQAPGQGLEWIGAIYPDNGDTSYNQKFKGKATLTADKSTSTAYMELSSLRSEDTAVYYCARGDFGYWGQGTLVTVSS
VL: DIVMTQSPSSLSASVGDRVTITCKASQDVNIDVAWYQQKPGKAPKLLIYLASYRYTGVPSRFSGSGSGTDFTFTISSLQPEDFATYYCQQTYSTPYTFGQGTKLEIK
IC50 (FGFR2IIIb-Fc [1]): 0.905 µg/mL
Kd (FGFR2IIIb-his (ECD) [3]): 1.23 nM
IC50 (FGFR2IIIb-Fc [5]): 0.966 µg/mL

B3: III-0 (antibody, V domains shown)
VH: QVQLQQPGAELVRPGASVKMSCKASGYTFANYNMHWVKQTPRQGLEWIGAIYPGNGDTSYNQKFKGKATLTADKSSSTAYMQLSSLTSEDSAVYYCARGDFGYWGQGTTLTVSS
VL: DIVMTQSHKFMSTSVGDRVTITCKASQDVNIDVAWYQQKPGQSPKLLIYSASYRYTGVPDRFTGSGSGTDFTFTISSVQAEDLAVYYCQQHYSTPYTFGGGTKLEIK
IC50 (FGFR2IIIb-Fc [7]): 0.904 µg/mL
IC50 (FGFR2IIIb-Fc [8]): 0.603 µg/mL
IC50 (FGFR2IIIb-Fc [9]): 0.692 µg/mL
IC50 (FGFR2IIIb-Fc [10]): 0.84 µg/mL
EC50 (FGFR2IIIb on cells [2]): 0.342 µg/mL
EC50 (FGFR2IIIb on cells [11]): 1.01 µg/mL
Kd (FGFR2IIIb-his (ECD) [3]): 81.3 nM
EC50 (FGFR2IIIb on cells [4]): 0.74 µg/mL
IC50 (FGFR2IIIb-Fc [12]): 0.694 µg/mL
IC50 (FGFR2IIIb-Fc [13]): 0.745 µg/mL
EC50 (FGFR2IIIb-his (ECD) [6]): 0.048 µg/mL
EC50 (FGFR2IIIb on cells [14]): 1.64 µg/mL
EC50 (FGFR2IIIb-his (ECD) [15]): 0.0404 µg/mL

B4: III-12 (antibody, V domains shown)
VH: QVQLVQSGAEVKKPGSSVKVSCKASGYTFANYNMHWVRQAPGQGLEWIGAIYPDNGDTSYNQKFKGKATLTADKSTSTAYMELSSLRSEDTAVYYCARGDFGYWGQGTLVTVSS
VL: DIVMTQSPSSLSASVGDRVTITCKASQDVNIDVAWYQQKPGKAPKLLIYLASYRYTGVPSRFSGSGSGTDFTFTISSLQPEDFATYYCQQTYSTPYTFGQGTKLEIK
IC50 (FGFR2IIIb-Fc [1]): 0.999 µg/mL
Kd (FGFR2IIIb-his (ECD) [3]): 1.32 nM
IC50 (FGFR2IIIb-Fc [5]): 1.08 µg/mL

B5: III-10 (antibody, V domains shown)
VH: QVQLVQSGAEVKKPGSSVKVSCKASGYTFANYNMHWVRQAPGQGLEWIGAIYPGNGDTSYNQKFKGKATLTADKSTSTAYMELSSLRSEDTAVYYCARGDFGYWGQGTLVTVSS
VL: DIVMTQSPSSLSASVGDRVTITCKASQDVNIDVAWYQQKPGKAPKLLIYSASYRYTGVPSRFSGSGSGTDFTFTISSLQPEDFATYYCQQHYSTPYTFGQGTKLEIK
IC50 (FGFR2IIIb-Fc [8]): 0.565 µg/mL
IC50 (FGFR2IIIb-Fc [9]): 0.581 µg/mL
EC50 (mouse FGFR2IIIb): 0.127 µg/mL
EC50 (FGFR2IIIb on cells [2]): 0.257 µg/mL
Kd (FGFR2IIIb-his (ECD) [3]): 68.1 nM
EC50 (FGFR2IIIb on cells [4]): 0.471 µg/mL
IC50 (FGFR2IIIb-Fc [13]): 0.724 µg/mL
EC50 (FGFR2IIIb-his (ECD) [6]): 0.052 µg/mL

B6: III-14 (antibody, V domains shown)
VH: QVQLVQSGAEVKKPGSSVKVSCKASGYTFAIYNMHWVRQAPGQGLEWIGAIYPGNGDTFYNQKFKGKATLTADKSTSTAYMELSSLRSEDTAVYYCARGDFGYWGQGTLVTVSS
VL: DIVMTQSPSSLSASVGDRVTITCKASQDVNIDVAWYQQKPGKAPKLLIYLASYRYTGVPSRFSGSGSGTDFTFTISSLQPEDFATYYCQQTYSTPYTFGQGTKLEIK
IC50 (FGFR2IIIb-Fc [1]): 0.937 µg/mL
EC50 (FGFR2IIIb on cells [2]): 0.263 µg/mL
Kd (FGFR2IIIb-his (ECD) [3]): 1.26 nM
EC50 (FGFR2IIIb on cells [4]): 0.526 µg/mL
IC50 (FGFR2IIIb-Fc [5]): 0.974 µg/mL
EC50 (FGFR2IIIb-his (ECD) [6]): 0.058 µg/mL

B7: III-15 (antibody, V domains shown)
VH: QVQLVQSGAEVKKPGSSVKVSCKASGYTFAIYNMHWVRQAPGQGLEWIGAIYPDNGDTFYNQKFKGKATLTADKSTSTAYMELSSLRSEDTAVYYCARGDFGYWGQGTLVTVSS
VL: DIVMTQSPSSLSASVGDRVTITCKASQDVNIDVAWYQQKPGKAPKLLIYLASYRYTGVPSRFSGSGSGTDFTFTISSLQPEDFATYYCQQTYSTPYTFGQGTKLEIK
IC50 (FGFR2IIIb-Fc [1]): 0.805 µg/mL
EC50 (FGFR2IIIb on cells [2]): 0.26 µg/mL
Kd (FGFR2IIIb-his (ECD) [3]): 1.04 nM
EC50 (FGFR2IIIb on cells [4]): 0.378 µg/mL
IC50 (FGFR2IIIb-Fc [5]): 0.941 µg/mL
EC50 (FGFR2IIIb-his (ECD) [6]): 0.042 µg/mL

B8: 27E9A11 (antibody, V domains shown)
VH: QVQLQQPGAELVRPGASVKMSCKASGYTFANYNMHWVKQTPRQGLEWIGAIYPGNGDTSYNQKFKGKATLTADKSSSTAYMQLSSLTSEDSAVYYCARGDFGYWGQGTTLTVSS
VL: DIVMTQSHKFMSTSVGDRVTITCKASQDVNIDVAWYQQKPGQSPKLLIYSASYRYTGVPDRFTGSGSGTDFTFTISSVQAEDLAVYYCQQHYSTPYTFGGGTKLEIK
binding result (FGFR2IIIc-his (ECD)): no binding
EC50 (FGFR2IIIb-his (ECD) [16]): 0.05 µg/mL
IC50 (FGFR2IIIb-Fc [17]): 0.417 µg/mL
IC50 (FGFR2IIIb-Fc [18]): 0.545 µg/mL
